Results as given in US20090053184A1.

Key:
Test in all cases: chromium release; transduced lymphocytes against T2 cells having HLA-A2 pulsed with 'NY-ESO-1 peptide'; which of the listed peptides not given; full-length, on cells
Settings in all cases: chains Valpha:Vbeta
[1] = target: T1, NY-ESO-1 peptide on HLA-A*02:01 (human)
T1 chain: SLLMWTTQC

[2] = target: T2, NY-ESO-1 peptide on HLA-A*02:01 (human)
T2 chain: SLLMWTTQCFLP

[3] = target: T3, NY-ESO-1 peptide on HLA-A*02:01 (human)
T3 chain: SLLMWTTQV

Measured: lowest peptide concentration that stimulated killing

B1: anti-NY-ESO-1 TCR (SEQ ID NOS: 6 and 8) (protein)
chain 1: SQQGEEDPQALSIQEGENATMNCSYKTSINNLQWYRQNSGRGLVHLILIRSNEREKHSGRLRVTLDTSKKSSSLLITASRAADTASYFCATDGAGKSTFGDGTTLTVKP
chain 2: DAGVIQSPRHEVTEMGQEVTLRCKPISGHDYLFWYRQTMMRGLELLIYFNNNVPIDDSGMPEDRFSAKMPNASFSTLKIQPSEPRDSAVYFCASTIGAQPQHFGDGTRLSIL
< 0.02 nM: [1] | [2] | [3]
